Assay in all cases: BLI
On the technique in general: Biolayer interferometry detects binding as a change in optical thickness at a sensor tip.

The target in experiment [1] is gp120 AE (clade E, 93TH976.17) (HIV-1 isolate 93TH976.17).
Experiment [2] has as its target gp120 B (clade B, 92US715.6) (HIV-1 isolate 92US715.6).
The target in experiment [3] is T1, gp120 Czm (clade C, 96ZM652) (HIV-1 isolate 96ZM652).
Experiment [4] concerns the target Bal gp120 (HIV-1 isolate Bal).
Experiment [5] deals with T2, gp120 A2 (clade A, 92UG037.8) (HIV-1 isolate 92UG037.8).
The target of experiment [6] is T1, gp120 Czm (clade C, 96ZM652). This is another data set of the same source.
In experiment [7] the target is Bal gp120 (HIV-1 isolate Bal). The source holds these as a separate data set.
The target of experiment [8] is T2, gp120 A2 (clade A, 92UG037.8). The source holds these as a separate data set.

B1: HmAb64 (antibody, V domains shown)
VH: QVQLVQSGAEVKKPGASVKVSCKASGYTFTSYDITWVRQAPGQGLEWMGWISAYNGDTNYAQRLQGRVTMTTDTSTSTAYMELRSLRSDDTAVYYCARAKHTVLVTAMRWFDPWGQGTLVTVSS
VL: DIQMTQSPSSLSASVGDRVTITCRASQSISNYLNWYQQKPGKAPKLLISATSSLQSGVPSRFSGSGSGTDFTLTISSLQPDDFATYYCQQSYSTPWTFGQGTKLEIK
In the case of B1, the Kd in experiment [1] came to 20 nM; in experiment [2], 22.9 nM; in experiment [6] it was 22.5 nM; with Bal gp120 [7], 16 nM; in experiment [8] it was 39.4 nM. The off-rate constant (koff) in experiment [1] worked out at 0.000423 s⁻¹; in experiment [2], 0.000684 s⁻¹; in experiment [3], 0.000454 s⁻¹; with Bal gp120 [4] it was 0.000459 s⁻¹; in experiment [5], 0.000641 s⁻¹.

One may read the Kd as the concentration at which binding is half-saturated. For orientation: koff means the rate constant with which the complex falls apart. Low values mean slow dissociation, high ones fast dissociation.

Values taken from paper PMC11109196 (2024).
